The values below come from publication PMC9270183 (The Journal of Experimental Medicine, 2022).

The assay has as its target T1, 417N/484K/501Y RBD mutant (SARS-CoV-2, Wuhan-Hu-1 RBD backbone …, 417N | 484K | 501Y).
T1 construct: also called RBD KEN
As to the kind of experiment: BLI. The note with it: both partners purified.

B1: V063 (antibody, V domains shown)
VH: QVQLVESGGGVVQPGRSLRLSCAASGFPFSSFGMHWVRQAPGKGLEWVAVISSDGSNKYYADSVKGRFTISRDNSKNTLYLQMNSLRAEDTAVYYCAKEFTYVVVTAFWGTENFDIWGQGTMVTVSS
VL: DIQMTQSPSTLSASVGDRVTITCRASQSISSWLAWYQQKPGKAPNLLIYKASALESGVPSRFSGSGSGTEFTLTISSLQPDDFATYYCQQYNSYPITFGQGTRLEIK
notes: IgG; donor BRA15; source: recombinant monoclonal IgG, produced and purified as previously described
By Kd is commonly meant the constant that tells how readily two partners part at equilibrium. The molecule B1 registered a Kd of 3.34 nM.

B2: V016 (antibody, V domains shown)
VH: QVQLVESGGGVVQPGRSLRLSCAASGFTFSNYGMHWVRQAPGKGLEWVAVISYDGSNKYYADSVKGRFTISRDNSKNTLYLQMNSVRVEDTAVYYCAKGSFGYSYVHTYFDYWGQGTLVTVSS
VL: DIQMTQSPSTLSASVGDRVTITCRASQSISSWLAWYQQKPGKAPKLLIYDASSLESGVPSRFSGSGSGTEFILTISSLQPDDFATYYCQQYNSPMYTFGQGTKLEIK
notes: IgG; donor BRA13; source: recombinant monoclonal IgG, produced and purified as previously described
B2: the Kd was 4.43 nM.

B3: V014 (antibody, V domains shown)
VH: EVQLVESGGGLVQPGGSLRLSCAASGFTFSSYDMHWVRQATGKGLEWVSAIGTAGDTYYPGSVKGRFTISRENAKNSLYLQMNSLRAGDTAVYYCARGVITMVRGVIRDYYYYGMDVWGQGTTVTVSS
VL: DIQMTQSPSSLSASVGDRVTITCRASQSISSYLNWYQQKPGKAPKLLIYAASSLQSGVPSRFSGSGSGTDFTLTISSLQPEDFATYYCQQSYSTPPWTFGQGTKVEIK
notes: as for B2
In the case of B3, the dissociation constant Kd stood at 27.3 nM.

B4: V020 (antibody, V domains shown)
VH: QVQLVESGGGVVQPGRSLRLSCAASGFTFSSYGMHWVRQAPGKGLEWVAVISYDGSNKYYADSVKGRFTISRDNSKNTLYLQMNSLRAEDTAVYYCAKGGWFGELLRYFDYWGQGTLVTVSS
VL: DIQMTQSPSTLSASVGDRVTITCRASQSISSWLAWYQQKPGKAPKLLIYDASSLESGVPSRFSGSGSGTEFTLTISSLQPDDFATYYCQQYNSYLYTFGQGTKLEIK
notes: as for B2
Molecule B4 had a Kd of 94.8 nM.

B5: V026 (antibody, V domains shown)
VH: QVQLVESGGGVVQPGRSLRLSCAVSGFTFSSYGMHWVRQAPGKGLEWVAVISYEGSNKYYADSVKGRFTISRDNSKNTLYLQMNSLRAEDTAVYYCAKGGWYGSPTYYFDYWGQGTLVTVSS
VL: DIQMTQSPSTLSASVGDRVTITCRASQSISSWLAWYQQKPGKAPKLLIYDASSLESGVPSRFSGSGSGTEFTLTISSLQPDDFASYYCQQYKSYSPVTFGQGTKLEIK
notes: as for B2
Regarding B5, the affinity, expressed as Kd, was 11.9 nM.

B6: V013 (antibody, V domains shown)
VH: QVQLVESGGGVVQPGRSLRLSCAGSGFIFSSFAMHWVRQAPGKGLEWVAVVSYDGDNKYYADSVKGRFTISRDNSKNTLYLQMDSLRPEDTAVYFCGRDEAALWIQRWYREIDFWGQGTLVTVSS
VL: QSVLTQPPSVSGTPGQRVTISCSGSSSNTGRNPVTWYQQFPGSAPKLLISRNNQRPSGVPDRFSGSKSGTSASLAISGLQSEDEADYYCAAWDDNLNGQVFGGGTKVTVL
notes: as for B2
B6 came in with a Kd of 166 nM.

B7: V017 (antibody, V domains shown)
VH: EVQLVESGGGLVQPGGSLRLSCVASGFTFSTYSMNWVRQAPGKGLEWVSYISSSSSTIYYADSVKGRFTISRDNAKSSLYLQMNSLRAEDTAVYYCASGLCGGDCPLTCWGQGTLVTVSS
VL: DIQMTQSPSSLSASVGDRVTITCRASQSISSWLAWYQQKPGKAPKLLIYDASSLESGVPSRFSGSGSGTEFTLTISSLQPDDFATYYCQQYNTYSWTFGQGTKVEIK
notes: as for B2
B7 returned a Kd of 27.1 nM.

B8: V064 (antibody, V domains shown)
VH: EVQLVESGGGLVQPGGSLRLSCAASGLTVSRNYMRWVRQAPGKGLEWVSLIYSGGSTFYGDSVKGRFTISRDNSKNTLYLQMNSLRAEDTAVYYCARDLVRDGMDVWGQGTTVTVSS
VL: EIVMTQSPATLSVSPGERATLSCRASQSVSSNLAWYQQKPGQAPRLLIYGASTRATGIPARFSGSGSGTEFTLTISSLQSEDFAVYYCQQYNNWTFGQGTKVEIK
notes: as for B1
Regarding B8, binding was characterised by a dissociation constant (Kd) of 1.91 nM.

B9: V025 (antibody, V domains shown)
VH: QVQLVQSGAEVKKPGASVKVSCKASGYTFTSYGISWVRQAPGQGLEWMGWISVYNGKTNYAQKLQGRVTMTTDTSTSTAYMELRSLISDDTAVYYCARADRYNWDYGSSWGQGTLVTVSS
VL: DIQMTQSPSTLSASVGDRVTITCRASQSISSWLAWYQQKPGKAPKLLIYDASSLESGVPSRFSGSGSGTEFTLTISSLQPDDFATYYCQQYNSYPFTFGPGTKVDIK
notes: as for B2
Turning to B9, the dissociation constant (Kd) amounted to 2.84 nM.

B10: V010 (antibody, V domains shown)
VH: QVQLQESGPGLVKPSETLSLTCTVSGGSISSYYWSWIRQPPGKGLEWIGYIYYNGSTNYNPSLKSRVTISLDTSKNQFSLKLSSVTAADTAVYYCASDYYDSSGYYYGFDYWGQGTLVTVSS
VL: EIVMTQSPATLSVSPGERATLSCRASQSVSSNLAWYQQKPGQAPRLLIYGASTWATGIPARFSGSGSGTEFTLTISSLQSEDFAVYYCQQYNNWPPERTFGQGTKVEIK
notes: as for B2
Take B10: the Kd is 2.11 nM.

B11: V027 (antibody, V domains shown)
VH: not shown
VL: NFMLTQPHSVSESPGKTVTISCTRSSGSIASNYVQWYQQRPGSAPTTVIYEDNQRPSGVPDRFSGSIDSSSNSASLTISGLKTEDEADYYCQSYDSSNHRVFGGGTKLTVL
notes: IgG; donor BRA14; source: recombinant monoclonal IgG, produced and purified as previously described
B11: the Kd amounted to 37.3 nM.

B12: V021 (antibody, V domains shown)
VH: QVQLQESGPGLVKPSQTLSLTCTVSGGSISSGSYYWSWIRQPVGKGLEWIGRIYTSGSTNYNPSLKSRVTISVDTSKNQFSLELSSVTAADRAVYYCARESSPASIPVRGVIWWFDPWGQGTLVTVSS
VL: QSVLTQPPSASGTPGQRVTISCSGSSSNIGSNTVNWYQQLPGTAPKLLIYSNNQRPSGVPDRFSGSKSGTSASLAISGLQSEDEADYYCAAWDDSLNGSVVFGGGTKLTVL
notes: IgG; donor BRA13
Regarding B12, binding was put at a Kd of 32.6 nM.

B13: V009 (antibody, V domains shown)
VH: EVQLVQSGAEVKKPGESLKISCKGSGYRFTSYWIGWVRQMPGKGLEWMGIIYAGDSDTRYSPSFQGQVTISVDKSISTAYLQWSSLKASDTAMYYCATTMTTGYFDYWGQGTLVTVSS
VL: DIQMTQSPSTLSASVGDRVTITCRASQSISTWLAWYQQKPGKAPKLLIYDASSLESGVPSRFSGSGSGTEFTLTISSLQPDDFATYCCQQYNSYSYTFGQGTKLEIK
notes: as for B2
B13 came in with an equilibrium dissociation constant (Kd) of 1.83 nM.

B14: V022 (antibody, V domains shown)
VH: EVQLVESGGGLVKPGGSLRLSCAASGFTFSSYSMNWVRQAPGKGLEWVSSISSTNNYIYNADSVKGRFTISRDNAKNSLYLQMNSLRAEDTAVYYCARDPAGRYSYGLYYFYYMDVWGKGTTVTVSS
VL: QSALTQPASVSGSPGQSITISCTGTSSDVGGYNYVSWYQQRPGKAPKLMIYDVSNRPSGVSDRFSGSKSGNTASLTISGLQAEDEADYYCTSYTSSSSLYVFGTGTKVTVL
notes: as for B2
Molecule B14 came in with a Kd of 5.71 nM.

B15: V019 (antibody, V domains shown)
VH: QVQLVQSGAEVKKPGSSVKVSCKASGGTFSTYTFSWVRQAPGQGLEWMGRIIPILGIANYAQKFQGRITITADKSTSTAYMELSSLRSEDTAVYYCAWGSYSYGYFVDIWGQGTMVTVSS
VL: DIVMTQTLLSLSVTPGQPASISCKSSQSLLHSDGKTYLYWYLQKPGQSPQLLIYEVSSRFSGVPDRFSGSGSGTDFTLKISRVEAEDVGVYYCMQGIQFHWTFGQGTKLEIK
notes: as for B2
B15: the Kd is 3.31 nM.

B16: V015 (antibody, V domains shown)
VH: EVQLVESGGGLVQPGGSLRLSCAASGFTFNSYWMSWVRQAPGKGLEWVANIKQDGSEKYYVDSVKGRFTISRDNAKNSLYLQMNSLRAEDTAVYYCARLPTYYSGFDYWGQGTLVTVSS
VL: NFMLTQPHSVSESPGKTVTISCTGSSGSIASNYVQWYQQRPGSAPTTVIYEDNQRPSGVPDRFSGSIDSSSNSASLTISGLKTEDEADYYCQSYDSTNRGVVFGGGTKLTVL
notes: as for B2
With B16, the Kd was 14.3 nM.

B17: V062 (antibody, V domains shown)
VH: QLQLQESGPGLVKPSETLSLTCTVSSGSISSSSYYWGWIRQPPGKGLEWIGSIYYSGSTYYNPSLKSRVTISVDTSKNQFSLKLSSVTAADTAVYYCARHWRENFAHAFDIWGQGTMVTVSS
VL: QSALTQPASVSGSPGQSITISCTGTSSDVGSYDLVSWFQQHPGKAPKLMIYEVTKRPSGVSNRFSGSKSGNTASLTISGLQAEDEADYYCCSYVGSSTYWVFGGGTKLTVL
notes: as for B1
Molecule B17 had a Kd of 1.89 nM.

B18: V028 (antibody, V domains shown)
VH: QVQLVESGGGVVQPGRSLRLSCAASGFTFSSYGMHWVRQAPGKGLEWVAVVSFDGSDKYYADSVKGRFTISRDNSKNTLYLQMNSLRAEDTALYYCAKGGYSYAYPRYYFDYWGQGTLVTVSS
VL: DIQMTQSPSSLSASVGDRVTITCQASQDISNYLNWYQQKPGKAPKLLIYDASNLETGVPSRFSGSGSGTDFTFTISSLQPEDIATYYCQQHDNLPITFGQGTRLEIK
notes: as for B11
With B18, the affinity, expressed as Kd, was 44.6 nM.

B19: V031 (antibody, V domains shown)
VH: QVQLVESGGGVVQPGRSLRLSCAASGFTFSSYGMHWVRQAPGKGLEWVAVISYDGSNKYYADSVKGRFAFSRDNSKNTLYLQMNSLRAEDTAVYYCAKGGYSYAYPRYYFDYWGQGTLVTVSS
VL: DIQMTQSPSSLSASVGDRVTITCQASQDISNYLNWYQQKPGKAPKLLIYDASNLETGVPSRFSGSGSGTDFTFTISSLQPEDIATYYCQQHDNLPITFGQGTRLEIK
notes: as for B11
On to B19, for which the Kd worked out at 14.5 nM.

B20: V011 (antibody, V domains shown)
VH: QVQLVQSGAEVKKPGASVKVSCKASGYIFTSYDINWVRQATGQGLEWMGWMNPNSGNTGYAQKFQGRVTMTRNTSISTAYMELSSLRSEDTAVYYCARASSSLTYYFDYWGQGTLVTVSS
VL: SYELTQPPSVSVAPGKTARITCGENNIGSKSVHWYQQKPGQAPVLVVYDDSDRPSGIPERFSGSNSGNTATLTISRVEAGDEADYYCQVWDSSSDPVVFGGGTKLTVL
notes: as for B2
In the case of B20, the Kd stood at 6.96 nM.

B21: V002 (antibody, V domains shown)
VH: EVQLVESGGGLVQPGRSLRLSCAASGFTFDEYAMHWVRQAPGKGLEWVSGSSWNSGTIGYADSVKGRFTISRDNAKNSLYLQMNSLRAEDTALYYCAKSQGDYGGNSGAGYFQHWGQGTLVTVSS
VL: SYELTQPPSVSVAPGKTARITCGGNNIGSKSVHWYQQKPGQAPMLVVYDDSDRPSGIPERFSGSNSGNTATLTISRVEAGDEADYYCQVWDSSSEVYVFGTGTKVTVL
notes: as for B2
Molecule B21 showed a Kd of 979 nM.

B22: V024 (antibody, V domains shown)
VH: QVQLVESGGGVVQPGRSLRLSCAASGFTFSSYGMHWVRQAPGKGLEWVAVISYDGSNKYYADSVKGRFTISRDNSKNTLYLQMNSLRGEDTAVYYCAKAGYGYSYGYGQIDYWGQGTLVTVSS
VL: not shown
notes: IgG; donor BRA13
The molecule B22 returned a Kd of 33.2 nM.
